Measurements from EP1086117B1.
pIC50, pKd: −log10 of the molar value.

Experiments:
[1] = biological target: human motilin receptor spliced form A (MTL-R1A) (human); experiment: cell-based or functional assay
[2] = biological target: human motilin receptor spliced form A (MTL-R1A) (human); experiment: displacement of [125I] human motilin from crude membranes of MTL-R1A transfected HEK-293/aeq17 cells
[3] = biological target: human motilin receptor spliced form A (MTL-R1A) (human); experiment: direct radioligand binding on cell membranes of MTL-R1A transfected cells

Row | Substance | Aequorin Assay (EC50 nM) [1] [nM] | pIC50 [2] | Bmax (fmol/mg protein) [3] | pKd [3] | bioluminescent response, aequorin assay, 100 nM peptide (fold over background) [1]
1 | 1-12 MTL (from UniProt P12872 26-37) (peptide) | 72 | 7.85 | – | – | –
2 | 1-13 MTL (from UniProt P12872 26-38) (peptide) | 3.8 | 9.05 | – | – | –
3 | [125I]-Tyr7-human motilin (from UniProt P12872 26-47) (peptide) | – | – | 240 | 10.00 | –
4 | canine motilin (from UniProt P19863 1-22) (peptide) | 4.4 | 9.70 | – | – | –
5 | human motilin (MTL) (from UniProt P12872 26-47) (peptide) | 2.1 | 9.30 | – | – | > 4
6 | 10-22 MTL (from UniProt P12872 35-47) (peptide) | > 10000 | 5.96 | – | – | –
7 | 1-19 MTL (from UniProt P12872 26-44) (peptide) | 4.1 | 9.52 | – | – | –
8 | 1-11 MTL (from UniProt P12872 26-36) (peptide) | 138 | 6.90 | – | – | –
9 | Leu 13 MTL (from UniProt P12872 26-115) (peptide) | 3.9 | 9.70 | – | – | –
